Laboratory results as given in patent US20180051081A1 (published 2018).
Changes are numbered by the printed parent chain.

T1: rat CD47 (rat, UniProt P97829 19-303)
T1 construct: whole, on cells; also called CD47 on rat RBCs
T1 sequence (looked up): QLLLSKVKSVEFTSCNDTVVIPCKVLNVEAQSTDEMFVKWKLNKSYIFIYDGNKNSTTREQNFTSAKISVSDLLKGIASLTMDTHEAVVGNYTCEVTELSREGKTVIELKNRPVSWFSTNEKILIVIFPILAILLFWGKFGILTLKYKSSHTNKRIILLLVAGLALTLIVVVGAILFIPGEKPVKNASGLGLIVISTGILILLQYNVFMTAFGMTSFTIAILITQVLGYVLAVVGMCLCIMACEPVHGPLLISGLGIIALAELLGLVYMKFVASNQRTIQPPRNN

T2: pig CD47 (pig, UniProt Q9GKE8 19-303)
T2 construct: whole, on cells; also called CD47 on porcine RBCs
T2 sequence (looked up): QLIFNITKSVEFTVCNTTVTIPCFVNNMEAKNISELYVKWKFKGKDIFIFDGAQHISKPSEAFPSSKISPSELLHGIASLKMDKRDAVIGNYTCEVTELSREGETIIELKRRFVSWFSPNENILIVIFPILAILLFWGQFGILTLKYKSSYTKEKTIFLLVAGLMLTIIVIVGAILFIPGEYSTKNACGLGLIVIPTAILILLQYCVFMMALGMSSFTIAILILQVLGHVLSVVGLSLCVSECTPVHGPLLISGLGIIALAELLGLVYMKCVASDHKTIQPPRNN

T3: dog CD47 (dog, UniProt A0A8I3PM61 19-310)
T3 construct: also called CD47 on dog RBCs
T3 sequence: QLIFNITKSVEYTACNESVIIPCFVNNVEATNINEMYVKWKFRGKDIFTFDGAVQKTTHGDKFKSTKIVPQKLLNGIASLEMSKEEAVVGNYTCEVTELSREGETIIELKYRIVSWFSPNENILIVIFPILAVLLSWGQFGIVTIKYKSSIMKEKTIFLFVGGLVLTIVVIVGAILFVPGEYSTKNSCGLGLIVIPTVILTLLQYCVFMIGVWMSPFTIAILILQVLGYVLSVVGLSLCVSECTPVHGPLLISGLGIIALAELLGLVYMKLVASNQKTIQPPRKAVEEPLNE

T4: mouse CD47 (mouse, UniProt Q61735 19-303)
T4 construct: whole, on cells; also called CD47 on mouse RBCs; CD47 on 4T1 cells
T4 sequence (looked up): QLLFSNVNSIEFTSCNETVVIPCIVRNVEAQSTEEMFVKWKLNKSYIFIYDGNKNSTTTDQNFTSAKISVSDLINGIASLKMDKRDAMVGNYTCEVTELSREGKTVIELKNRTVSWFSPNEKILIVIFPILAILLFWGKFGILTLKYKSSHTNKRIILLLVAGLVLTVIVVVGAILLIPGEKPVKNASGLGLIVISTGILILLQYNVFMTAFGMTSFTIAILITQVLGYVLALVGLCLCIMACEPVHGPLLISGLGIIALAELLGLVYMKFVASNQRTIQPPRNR

B1: Clone 23 (pVxK7b-037-hum23-LC / pVxK7b-037-hum23-HC) (antibody, human IgG1, kappa)
light: DIVMTQTPLSLPVTPGEPASISCRSSQSLVHSNGNTYLHWYQQKPGKAPKLLIYKVSYRFSGVPDRFSGSGSGTDFTLKISRVEAEDVGVYYCSQNTHVPRTFGQGTKVEIKRTVAAPSVFIFPPSDEQLKSGTASVVCLLNNFYPREAKVQWKVDNALQSGNSQESVTEQDSKDSTYSLSSTLTLSKADYEKHKVYACEVTHQGLSSPVTKSFNRGEC
heavy: not shown
B2: Clone 5 (pVxK7b-037-hum05-LC / pVxK7b-037-hum05-HC) (antibody, human IgG1, kappa)
light: B1 light with Q42L, K47Q, A48S, K50Q
heavy: not shown
B3: Clone 8 (pVxK7b-037-hum08-LC / pVxK7b-037-hum08-HC) (antibody, human IgG1, kappa)
light: B1 light
heavy: not shown
B4: Clone 10 (pVxK7b-037-hum10-LC / pVxK7b-037-hum10-HC) (antibody, human IgG1, kappa, V domains shown)
VH: QVQLQESGPGLVKPSQTLSLTCTVSGYTFTNYYVFWVRQARGQRLEWIGDINPVNGDTNFNEKFKNRLTISKDTSKNQVVLTMTNMDPVDTATYYCARGGYTMDYWGQGTLVTVSS
VL: DIVMTQTPLSLPVTPGEPASISCRSSQSLVHSNGNTYLHWYLQKPGQSPQLLIYKVSYRFSGVPDRFSGSGSGTDFTLKISRVEAEDVGVYYCSQNTHVPRTFGQGTKVEIKR
B5: Clone 9 (pVxK7b-037-hum09-LC / pVxK7b-037-hum09-HC) (antibody, human IgG1, kappa)
light: B1 light with I2V, T7S, P15L, E17Q
heavy: not shown
notes: also called Cl 9
B6: Clone 16 (pVxK7b-037-hum16-LC / pVxK7b-037-hum16-HC) (antibody, human IgG1, kappa, V domains shown)
VH: QVQLQESGPGLVKPSQTLSLTCTVSGYTFTNYYVFWVRQARGQRLEWIGDINPVNGDTNFNEKFKNRVTISADKSISTAYLQWSSLKASDTAMYYCARGGYTMDYWGQGTLVTVSS
VL: AIQLTQSPSSLSASVGDRVTITCRSSQSLVHSNGNTYLHWYQQKPGQAPRLLIYKVSYRFSGVPDRFSGSGSGTDFTLKISRVEAEDVGVYYCSQNTHVPRTFGQGTKVEIKR
B7: Clone 22 (pVxK7b-037-hum22-LC / pVxK7b-037-hum22-HC) (antibody, human IgG1, kappa, V domains shown)
VH: B4 VH
VL: EIVLTQSPATLSVSPGERATLSCRSSQSLVHSNGNTYLHWYQQKPGQAPRLLIYKVSYRFSGVPSRFSGSGSGTDFTFTISSLEAEDAATYYCSQNTHVPRTFGQGTKVEIKR
B8: Clone 11 (pVxK7b-037-hum11-LC / pVxK7b-037-hum11-HC) (antibody, human IgG1, kappa, V domains shown)
VH: QVQLQESGPGLVKPGATVKISCKVSGYTFTNYYVFWVRQARGQRLEWIGDINPVNGDTNFNEKFKNRVTITADKSTSTAYMELSSLRSEDTAVYYCARGGYTMDYWGQGTLVTVSS
VL: B7 VL
notes: also called Cl 11
B9: Clone 24 (pVxK7b-037-hum24-LC / pVxK7b-037-hum24-HC) (antibody, human IgG1, kappa, V domains shown)
VH: B8 VH
VL: AIQLTQSPSSLSASVGDRVTITCRSSQSLVHSNGNTYLHWYQQKPGQAPRLLIYKVSYRFSGVPSRFSGSGSGTEFTLTISSLQPDDFATYYCSQNTHVPRTFGQGTKVEIKR
notes: also called Cl 24
B10: Clone 4 (pVxK7b-037-hum04-LC / pVxK7b-037-hum04-HC) (antibody, human IgG1, kappa, V domains shown)
VH: QVQLQESGPGLVKPSQTLSLTCTVSGYTFTNYYVFWVRQAPGKGLEWVSDINPVNGDTNFNEKFKNRVTISVDTSKNQFSLKLSSVTAADTAVYYCARGGYTMDYWGQGTLVTVSS
VL: B9 VL with A1D, L4M, Q42L, A48S, R50Q, V63I, S65A, P85S, D86E, T90V
B11: Clone 7 (pVxK7b-037-hum07-LC / pVxK7b-037-hum07-HC) (antibody, human IgG1, kappa, V domains shown)
VH: B8 VH
VL: B4 VL
B12: Clone 12 (pVxK7b-037-hum12-LC / pVxK7b-037-hum12-HC) (antibody, human IgG1, kappa, V domains shown)
VH: B8 VH
VL: B4 VL with L42Q, Q47K, S48A, Q50K

Each binder was assayed against T1, rat CD47 (assay: FACS, rat RBCs, supernatant 10 ng/ml).
Experimental: (§1) RBCs are incubated for 60 minutes on ice with tissue culture supernatants containing the secreted humanized antibodies at a concentration of 10 ng/ml in a solution of phosphate buffered saline, pH 7.2, 2.5 mM EDTA (PBS+E), or with various concentrations of purified antibodies. Cells are then washed with cold PBS+E, and incubated for an additional hour on ice with FITC labeled donkey anti-human antibody (Jackson Immuno Research Labs, West Grove, Pa.; Catalogue #709-096-149) in PBS+E. Cells are then washed with PBS+E, and antibody binding is analyzed using a BD FACSAria Cell Sorter (Becton Dickinson) or a C6 Accuri Flow Cytometer (Becton Dickinson). Antibody binding is quantitated by comparison of mean fluorescence values relative to that of chimeric antibody >VxP037-01LC (SEQ ID NO:7))/>VxP037-01HC (SEQ ID NO:57). The mean fluorescence value for each antibody is divided by the mean fluorescence value for the chimeric antibody.

| mean fluorescence relative to chimera | Binder |
| --- | --- |
| 3.3 | B1 |
| 2.2 | B2 |
| 1.2 | B3 |
| 2.9 | B4 |
| 3.7 | B5 |
| 2.1 | B6 |
| 2.8 | B7 |
| 1.2 | B8 |
| 1.2 | B9 |
| 1 | B10 |
| 0.8 | B11 |
| 1.3 | B12 |

The binders below were run against T2, pig CD47 (assay: FACS, pig RBCs, supernatant 10 ng/ml).
Experimental: as §1

| mean fluorescence relative to chimera | Binder |
| --- | --- |
| 1.7 | B1 |
| 1.2 | B2 |
| 0.8 | B3 |
| 1.5 | B4 |
| 1.6 | B5 |
| 1.1 | B6 |
| 1.4 | B7 |
| 1.2 | B8 |
| 1.1 | B9 |
| 0.6 | B10 |
| 0.9 | B11 |
| 1.4 | B12 |

Each binder was assayed against T3, dog CD47 (assay: FACS, dog RBCs, supernatant 10 ng/ml).
Experimental: as §1

| mean fluorescence relative to chimera | Binder |
| --- | --- |
| 1.1 | B1 |
| 1.1 | B2 |
| 0.8 | B3 |
| 1.1 | B4 |
| 1 | B5 |
| 1.1 | B6 |
| 1 | B7 |
| 0.8 | B8 |
| 1 | B9 |
| 0.6 | B10 |
| 0.8 | B11 |
| 0.9 | B12 |

The binders below were run against T4, mouse CD47 (assay: FACS, mouse RBCs, supernatant 10 ng/ml).
Experimental: as §1

| mean fluorescence relative to chimera | Binder |
| --- | --- |
| 1.4 | B1 |
| 1 | B2 |
| 0.7 | B3 |
| 1.2 | B4 |
| 1.4 | B5 |
| 1 | B6 |
| 1.2 | B7 |
| 0.7 | B8 |
| 0.7 | B9 |
| 0.6 | B10 |
| 0.4 | B11 |
| 0.6 | B12 |

Each binder was assayed against T5, human CD47 (human, UniProt Q08722 19-323) (assay: FACS, human RBCs, supernatant 10 ng/ml).
T5 construct: whole, on cells; also called CD47 on human RBCs; CD47 on OV10 cells
Experimental: as §1

T5 sequence (Q08722 19-323): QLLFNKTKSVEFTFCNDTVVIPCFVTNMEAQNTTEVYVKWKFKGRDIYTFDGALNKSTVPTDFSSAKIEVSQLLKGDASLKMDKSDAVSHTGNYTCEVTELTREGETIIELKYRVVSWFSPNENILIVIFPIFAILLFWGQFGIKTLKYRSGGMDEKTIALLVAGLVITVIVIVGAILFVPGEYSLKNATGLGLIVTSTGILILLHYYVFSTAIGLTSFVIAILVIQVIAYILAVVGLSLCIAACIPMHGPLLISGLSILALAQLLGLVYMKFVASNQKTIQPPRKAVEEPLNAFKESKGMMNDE

| mean fluorescence relative to chimera | Binder |
| --- | --- |
| 1.2 | B1 |
| 1 | B2 |
| 0.7 | B3 |
| 1.1 | B4 |
| 1.2 | B5 |
| 0.9 | B6 |
| 1.1 | B7 |
| 0.8 | B8 |
| 0.8 | B9 |
| 0.6 | B10 |
| 0.5 | B11 |
| 0.8 | B12 |
